According to patent publication US20260055205A1 (published 2026):

T1: cynomolgus monkey CD3 epsilon (cynomolgus monkey, UniProt Q95LI5 22-117, limits assumed)
T1 construct: also called cyCD3e; cyno CD3
T1 sequence (looked up): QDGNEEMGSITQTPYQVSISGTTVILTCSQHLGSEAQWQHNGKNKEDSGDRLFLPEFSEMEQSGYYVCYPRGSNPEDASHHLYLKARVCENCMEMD

T2: cyCD3e-Fc (cynomolgus monkey, UniProt Q95LI5 22-117)
T2 sequence (looked up): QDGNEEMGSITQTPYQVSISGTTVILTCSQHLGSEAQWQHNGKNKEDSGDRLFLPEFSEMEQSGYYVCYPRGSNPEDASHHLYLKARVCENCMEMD


Experiments:
human PSMA [1] = molecular target: T3, human PSMA (human, UniProt Q04609 44-750, limits assumed); experiment: BLI or SPR
T3 construct: also called huPSMA; hPSMA
T3 sequence (Q04609 44-750 limits assumed): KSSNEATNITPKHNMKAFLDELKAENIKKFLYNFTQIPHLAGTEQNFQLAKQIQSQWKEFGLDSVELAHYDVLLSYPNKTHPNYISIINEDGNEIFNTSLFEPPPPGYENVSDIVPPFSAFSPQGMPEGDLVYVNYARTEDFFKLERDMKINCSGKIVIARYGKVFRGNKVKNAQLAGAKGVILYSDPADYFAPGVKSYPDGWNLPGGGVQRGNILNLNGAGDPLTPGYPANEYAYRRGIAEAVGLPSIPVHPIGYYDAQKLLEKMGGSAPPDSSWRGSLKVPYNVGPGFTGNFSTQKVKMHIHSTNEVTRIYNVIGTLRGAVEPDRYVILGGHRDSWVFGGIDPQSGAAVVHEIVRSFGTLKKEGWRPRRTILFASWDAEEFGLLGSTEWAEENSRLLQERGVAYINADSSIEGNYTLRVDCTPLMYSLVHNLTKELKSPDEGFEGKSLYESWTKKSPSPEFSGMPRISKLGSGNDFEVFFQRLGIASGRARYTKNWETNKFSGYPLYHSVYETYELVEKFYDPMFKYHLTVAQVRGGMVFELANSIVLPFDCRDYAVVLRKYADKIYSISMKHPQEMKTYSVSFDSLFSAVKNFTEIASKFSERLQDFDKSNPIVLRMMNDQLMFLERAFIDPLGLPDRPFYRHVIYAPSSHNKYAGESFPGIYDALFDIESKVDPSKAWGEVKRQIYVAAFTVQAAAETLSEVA

cynomolgus monkey PSMA = molecular target: T4, cynomolgus monkey PSMA (cynomolgus monkey, UniProt A0A2K5VNZ0 44-750); experiment: BLI or SPR
T4 construct: also called cyPSMA; cyno PSMA

human CD3 epsilon [2] = molecular target: T5, human CD3 epsilon (human, UniProt P07766 23-126, limits assumed); experiment: BLI or SPR
T5 construct: also called huCD3e
T5 sequence (P07766 23-126 limits assumed): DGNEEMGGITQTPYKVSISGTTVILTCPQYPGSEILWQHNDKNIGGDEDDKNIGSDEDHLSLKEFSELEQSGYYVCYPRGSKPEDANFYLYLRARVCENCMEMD

[3] = molecular target: T1, cynomolgus monkey CD3 epsilon; experiment: BLI or SPR
human PSMA [4] = molecular target: T3, human PSMA; experiment: binding kinetics, uTCE
human PSMA [5] = molecular target: T3, human PSMA; experiment: binding screen
huCD3e-Fc = huCD3e-Fc (human, UniProt P07766 23-126); experiment: Octet, purified
huCD3e-Fc, sequence (P07766 23-126): as the sequence (P07766 23-126 limits assumed) above
Procedure: (§1) Pool 2 consisted of paTCE molecules each containing PSMA.262 and one of 64 CD3.23 mutation combination variants. Stability and affinity of the individually expressed molecules in the form of crude lysate was evaluated by Octet. […] The binding of these anti-CD3 molecules (CD3.227, CD3.228, CD3.229 and CD3.230) to human and cynomolgus CD3 was measured by Octet and the Tm was measured by Differential Scanning Fluorimetry. All variants were paired with PSMA.262 except for CD3.23 which was paired with PSMA.5.

cyCD3e-Fc = molecular target: T2, cyCD3e-Fc; experiment: Octet, purified
Procedure: as §1

human CD3 epsilon [6] = molecular target: T5, human CD3 epsilon; experiment: Octet, crude lysate
Outline: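 Octet binding of the anti-CD3 paTCE molecules was measured to cynomolgus CD3e-Fc with purified material and to human CD3 epsilon with crude lysate. Every variant carried PSMA.262 except CD3.23, which carried PSMA.5.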

Binder | Kd (human PSMA [4]) [nM] | koff (human PSMA [4]) [s⁻¹] | kon (human PSMA [4]) [M⁻¹ s⁻¹] | Kd (huCD3e-Fc) [nM] | koff (huCD3e-Fc) [s⁻¹] | kon (huCD3e-Fc) [M⁻¹ s⁻¹] | Kd (cyCD3e-Fc) [nM] | koff (cyCD3e-Fc) [s⁻¹] | kon (cyCD3e-Fc) [M⁻¹ s⁻¹] | Kd (human CD3 epsilon [6]) [nM] | also measured
AMX-500(1x-N) (bispecific antibody, Lacks the mask linked to the CD3 domain) ASSATPESGPGTSTEPSEGSAPGTSESATPESGPGSGPGTSESATPGTSESATPESGPGSEPATSGSETPGTSESATPESGPGTSTEPSEGSAPGSPAGSPTSTEEGTSESATPESGPGSEPATSGSETPGTSESATPESGPGSPAGSPTSTEEGSPAGSPTSTEEGTSTEPSEGSAPGTSESATPESGPGTSESATPESGPGTSESATPESGPGSEPATSGSETPGSEPATSGSETPGSPAGSPTSTEEGTSTEPSEGSAPGTSTEPSEGSAPGSEPATSGSETPGTSESATPEAGRSASHTPAGLTGPGTSESATPESQVQLVESGGGVVQPGRSLRLSCAASGRTFGIYVWGWFRQAPGKEREFVGAMSWSGSNRKVSDSVKGRFTISRDNSKNTLYLQMNSLRAEDTAVYYCAASNKEYGRTWYDFNESDYWGQGTQVTVSSGGGGSGGGSELVVTQEPSLTVSPGGTVTLTCRSSNGAVTSSNYANWVQQKPGQAPRGLIGGTNKRAPGTPARFSGSLLGGKAALTLSGVQPEDEAVYYCALWYPNLWVFGGGTKLTVLSESATPESGPGTSPGATPESGPGTSESATPEVQLVESGGGIVQPGGSLRLSCAASGFTFSTYAMNWVRQAPGKGLEWVGRIRTKRNNYATYYADSVKGRFTISRDDSKNTVYLQMNSLKTEDTAVYYCVRHENFGNSYVSWFAHWGQGTLVTVSSGTATPESGPG | – | – | – | – | – | – | – | – | – | – | Kd (human PSMA [1]): 230 nM; koff (human PSMA [1]): 0.012 s⁻¹; kon (human PSMA [1]): 50000 M⁻¹ s⁻¹; Kd (cynomolgus monkey PSMA): 2400 nM; koff (cynomolgus monkey PSMA): 0.039 s⁻¹; kon (cynomolgus monkey PSMA): 16000 M⁻¹ s⁻¹; Kd (human CD3 epsilon [2]): 46.3 nM; koff (human CD3 epsilon [2]): 0.1 s⁻¹; kon (human CD3 epsilon [2]): 2.8e+06 M⁻¹ s⁻¹; Kd [3]: 38 nM; koff [3]: 0.1 s⁻¹; kon [3]: 2.9e+06 M⁻¹ s⁻¹
AMX-500 (bispecific antibody, also called AC3896; AMX-500-P4) ASSATPESGPGTSTEPSEGSAPGTSESATPESGPGSGPGTSESATPGTSESATPESGPGSEPATSGSETPGTSESATPESGPGTSTEPSEGSAPGSPAGSPTSTEEGTSESATPESGPGSEPATSGSETPGTSESATPESGPGSPAGSPTSTEEGSPAGSPTSTEEGTSTEPSEGSAPGTSESATPESGPGTSESATPESGPGTSESATPESGPGSEPATSGSETPGSEPATSGSETPGSPAGSPTSTEEGTSTEPSEGSAPGTSTEPSEGSAPGSEPATSGSETPGTSESATPEAGRSASHTPAGLTGPGTSESATPESQVQLVESGGGVVQPGRSLRLSCAASGRTFGIYVWGWFRQAPGKEREFVGAMSWSGSNRKVSDSVKGRFTISRDNSKNTLYLQMNSLRAEDTAVYYCAASNKEYGRTWYDFNESDYWGQGTQVTVSSGGGGSGGGSELVVTQEPSLTVSPGGTVTLTCRSSNGAVTSSNYANWVQQKPGQAPRGLIGGTNKRAPGTPARFSGSLLGGKAALTLSGVQPEDEAVYYCALWYPNLWVFGGGTKLTVLSESATPESGPGTSPGATPESGPGTSESATPEVQLVESGGGIVQPGGSLRLSCAASGFTFSTYAMNWVRQAPGKGLEWVGRIRTKRNNYATYYADSVKGRFTISRDDSKNTVYLQMNSLKTEDTAVYYCVRHENFGNSYVSWFAHWGQGTLVTVSSGTATPESGPGEAGRSASHTPAGLTGPATPESGPGTSESATPESGPGSPAGSPTSTEEGTSESATPESGPGSEPATSGSETPGTSESATPESGPGTSTEPSEGSAPGTSTEPSEGSAPGTSTEPSEGSAPGTSTEPSEGSAPGTSTEPSEGSAPGTSTEPSEGSAPGSPAGSPTSTEEGTSTEPSEGSAPGTSESATPESGPGSEPATSGSETPGTSESATPESGPGSEPATSGSETPGTSESATPESGPGTSTEPSEGSAPGTSESATPESGPGSPAGSPTSTEEGSPAGSPTSTEEGSPAGSPTSTEEGTSESATPESGPGTSTEPSEGSAPGTSESATPESGPGSEPATSGSETPGTSESATPESGPGSEPATSGSETPGTSESATPESGPGTSTEPSEGSAPGSPAGSPTSTEEGTSESATPESGPGSEPATSGSETPGTSESATPESGPGSPAGSPTSTEEGSPAGSPTSTEEGTSTEPSEGSAPGTSESATPESGPGTSESATPESGPGTSPSATPESGPGSEPATSGSETPGSEPATSGSETPGSPAGSPTSTEEGTSTEPSEGSAPGTSTEPSEGSAPGSEPATSGSETPGTSESAGEPEA | – | – | – | – | – | – | – | – | – | – | Kd (human CD3 epsilon [2]): 90 nM; Kd [3]: 70 nM
uTCE PSMA-VHH; P01E02R3, CD3.23 (bispecific antibody) LTGPATSGSETPGTEVQLVESGGGLVQAGGSLKLSCVANGPTFSTYAMAWFRQAPGKEHEFVAAITGDGDTTNNADSVKGRFTISRDNAKNRVYLQLNSLKPEDTAAYYCAAGVHHTYTIPRLWLYWGQGTQVTVSSGGGGSGGGSELVVTQEPSLTVSPGGTVTLTCRSSNGAVTSSNYANWVQQKPGQAPRGLIGGTNKRAPGTPARFSGSLLGGKAALTLSGVQPEDEAVYYCALWYPNLWVFGGGTKLTVLGATPPETGAETESPGETTGGSAESEPPGEGEVQLLESGGGIVQPGGSLKLSCAASGFTFNTYAMNWVRQAPGKGLEWVARIRSKYNNYATYYADSVKDRFTISRDDSKNTVYLQMNNLKTEDTAVYYCVRHENFGNSYVSWFAHWGQGTLVTVSSGTAEAASASGEAGRSANHTPAG | 0.6 | 0.000156 | 261000 | – | – | – | – | – | – | – | –
uTCE PSMA-VHH; CB01B02R3, CD3.23 (bispecific antibody, also called PSMA.3) LTGPATSGSETPGTQVQLVESGGGLVQAGDSLRLSCVTSGRTFDVYAMGWFRQAPGKERELVAAINWSGSNKFHADSVKGRFTISRDNAWKTLSLQMNSLKPEDTAVYFCAASTRLYGTTWYEFNDSDYWGQGTQVTVSSGGGGSGGGSELVVTQEPSLTVSPGGTVTLTCRSSNGAVTSSNYANWVQQKPGQAPRGLIGGTNKRAPGTPARFSGSLLGGKAALTLSGVQPEDEAVYYCALWYPNLWVFGGGTKLTVLGATPPETGAETESPGETTGGSAESEPPGEGEVQLLESGGGIVQPGGSLKLSCAASGFTFNTYAMNWVRQAPGKGLEWVARIRSKYNNYATYYADSVKDRFTISRDDSKNTVYLQMNNLKTEDTAVYYCVRHENFGNSYVSWFAHWGQGTLVTVSSGTAEAASASGEAGRSANHTPAG | 1.15 | 0.000205 | 178000 | – | – | – | – | – | – | – | –
AC2717 (PSMA.5 with CD3.23) (bispecific antibody, V domains shown, Domains of one TCE chain; also called VHH3) VHH: QVQLVESGGGVVQPGRSLRLSCAASGRTFGIYVMGWVRQAPGKEREFVAAISWSGSNRLVSDSVKGRFTISRDNSKNTLYLQMNSLRAEDTAVYYCAASNRLYGRTWYDFNESDYWGQGTQVTVSS VL: ELVVTQEPSLTVSPGGTVTLTCRSSNGAVTSSNYANWVQQKPGQAPRGLIGGTNKRAPGTPARFSGSLLGGKAALTLSGVQPEDEAVYYCALWYPNLWVFGGGTKLTVL VH: EVQLLESGGGIVQPGGSLKLSCAASGFTFNTYAMNWVRQAPGKGLEWVARIRSKYNNYATYYADSVKDRFTISRDDSKNTVYLQMNNLKTEDTAVYYCVRHENFGNSYVSWFAHWGQGTLVTVSS | – | – | – | 131 | 0.0289 | 220000 | 130 | 0.0312 | 240000 | 12.9 | Kd (human PSMA [5]): 4.8 nM
CD3.230 (bispecific antibody, V domains shown, paTCE with PSMA.262; also called AC3661) VH: EVQLVESGGGIVQPGGSLRLSCAASGFTFSTYAMNWVRQAPGKGLEWVGRIRTKTNNYATYYADSVKGRFTISRDDSKNTVYLQMNSLKTEDTAVYYCVRHENFGNSYVSWFAHWGQGTLVTVSS VL: ELVVTQEPSLTVSPGGTVTLTCRSSNGAVTSSNYANWVQQKPGQAPRGLIGGTNKRAPGTPARFSGSLLGGKAALTLSGVQPEDEAVYYCALWYPNLWVFGGGTKLTVL | – | – | – | 195 | 0.0633 | 325000 | 216 | 0.0726 | 336000 | 17 | –
CD3.229 (bispecific antibody, V domains shown, paTCE with PSMA.262; also called AC3660) VH: EVQLVESGGGIVQPGGSLRLSCAASGFTFNTYAMNWVRQAPGKGLEWVGRIRTKTNNYATYYADSVKGRFTISRDDSKNTVYLQMNSLKTEDTAVYYCVRHENFGNSYVSWFAHWGQGTLVTVSS VL: ELVVTQEPSLTVSPGGTVTLTCRSSNGAVTSSNYANWVQQKPGQAPRGLIGGTNKRAPGTPARFSGSLLGGKAALTLSGVQPEDEAVYYCALWYPNLWVFGGGTKLTVL | – | – | – | 162 | 0.052 | 321000 | 193 | 0.0611 | 317000 | 11.9 | –
uTCE PSMA-VHH; P01G03R3, CD3.23 (bispecific antibody) LTGPATSGSETPGTEVQLVESGGGLVQAGGSLRLSCVVSGIAFSPYHMAWYRQAPGKQHEWVAVITTGGTTAYNETVEGRFSISRDNARSTVYLQMNSLKPEDTAVYYCNIYGLSLKWGQGTQVTVSSGGGGSGGGSELVVTQEPSLTVSPGGTVTLTCRSSNGAVTSSNYANWVQQKPGQAPRGLIGGTNKRAPGTPARFSGSLLGGKAALTLSGVQPEDEAVYYCALWYPNLWVFGGGTKLTVLGATPPETGAETESPGETTGGSAESEPPGEGEVQLLESGGGIVQPGGSLKLSCAASGFTFNTYAMNWVRQAPGKGLEWVARIRSKYNNYATYYADSVKDRFTISRDDSKNTVYLQMNNLKTEDTAVYYCVRHENFGNSYVSWFAHWGQGTLVTVSSGTAEAASASGEAGRSANHTPAG | 55.7 | 0.000539 | 9670 | – | – | – | – | – | – | – | –
